Measurements taken from patent US20240336672A1 (INSTITUT PASTEUR, published 2024).
Changes are numbered by the printed parent chain.

B1: Cv2.1353 (recombinant human IgG1) (antibody, V domains shown)
VH: EVQLVESGGGLVQPGGSLRLSCAASGVTVSSNYMNWVRQAPGKGLEWVSVIYSGGSTFYADSVKGRFIISRDNSKNTLYLQMNSLKTEDTAVYYCARDLGPMGFDIWGQGTMVTVSS
VL: DIQMTQSPSFLSASVGDRVTITCRASQGISSYLAWYQQKPGKAPKLLIYAASTLQSGVPSRFSGSGSGTEFTLTISSLQPEDFATYYCQQLNSDPPVTFGPGTKVDIKR
B2: Cv2.3194 (recombinant human IgG1) (antibody, V domains shown)
VH: EVQLVESGGGLIQPGGSLRLSCAASGITVTSNYMSWVRQAPGKGLEWVSVIYPGGSTFYADSVKGRFTISRDNSKNTLYLQMNSLRAEDTAVYYCARDLVVYGMDVWGQGTTVTVSS
VL: EIVLTQSPGTLSLSPGERATLSCRASQSVSSSYLAWYQQKPGQAPRLLIYGASSRATGIPGRFSGSGSGTDFTLTISRLEPEDFAIYYCQQGVTFGGGTKVEIKR
B3: Cv2.3235 (recombinant human IgG1) (antibody, V domains shown)
VH: B2 VH with I27F, T30S, S31R, P53S, L99G, V100D, V101Y
VL: DIQMTQSPSFLSASVGDRVTITCRASQGISSFLAWYQQKPGKAPKLLIYGASTLQSGVTSRFSGSGSGTEFTLTISSLQPEDFATYYCQRLDSYPPITFGQGTRLEIKR
B4: Cv2.5213 (recombinant human IgG1) (antibody, V domains shown)
VH: B2 VH with I27F, T30S, V50L, P53S, F58Y, V100N, V101Y, T111A
VL: B1 VL with F10S, E70D, N92D, D94Y, P95S, V97F
B5: Cv2.1169 (recombinant human IgG1) (antibody)
heavy: QVQLVQSGPEVKKPGTSVKVSCKASGFTFTTSAVQWVRQARGQRLEWIGWIVVGSGNTNYAQKFQERVTITRDMSTTTAYMELSSLRSEDTAVYYCAAPYCSGGTCLDGFDIWGQGTMVTVSSASTKGPSVFPLAPSSKSTSGGTAALGCLVKDYFPEPVTVSWNSGALTSGVHTFPAVLQSSGLYSLSSVVTVPSSSLGTQTYICNVNHKPSNTKVDKKVEPKSCDKTHTCPPCPAPELLGGPSVFLFPPKPKDTLMISRTPEVTCVVVDVSHEDPEVKFNWYVDGVEVHNAKTKPREEQYNSTYRVVSVLTVLHQDWLNGKEYKCKVSNKALPAPIEKTISKAKQPREPQVYTLPPSRDELTKNQVSLTCLVKGFYPSDIAVEWESNGQPENNYKTTPPVLDSDGSFFLYSKLTVDKSRWQQGNVFSCSVMHEALHNHYTQKSLSLSPGK
light: not shown
notes: also called Cv2.1169 IgG

Target: T1, CoV-229E Spike ectodomain (229E-CoV, UniProt P15423 16-1113)
T1 chain: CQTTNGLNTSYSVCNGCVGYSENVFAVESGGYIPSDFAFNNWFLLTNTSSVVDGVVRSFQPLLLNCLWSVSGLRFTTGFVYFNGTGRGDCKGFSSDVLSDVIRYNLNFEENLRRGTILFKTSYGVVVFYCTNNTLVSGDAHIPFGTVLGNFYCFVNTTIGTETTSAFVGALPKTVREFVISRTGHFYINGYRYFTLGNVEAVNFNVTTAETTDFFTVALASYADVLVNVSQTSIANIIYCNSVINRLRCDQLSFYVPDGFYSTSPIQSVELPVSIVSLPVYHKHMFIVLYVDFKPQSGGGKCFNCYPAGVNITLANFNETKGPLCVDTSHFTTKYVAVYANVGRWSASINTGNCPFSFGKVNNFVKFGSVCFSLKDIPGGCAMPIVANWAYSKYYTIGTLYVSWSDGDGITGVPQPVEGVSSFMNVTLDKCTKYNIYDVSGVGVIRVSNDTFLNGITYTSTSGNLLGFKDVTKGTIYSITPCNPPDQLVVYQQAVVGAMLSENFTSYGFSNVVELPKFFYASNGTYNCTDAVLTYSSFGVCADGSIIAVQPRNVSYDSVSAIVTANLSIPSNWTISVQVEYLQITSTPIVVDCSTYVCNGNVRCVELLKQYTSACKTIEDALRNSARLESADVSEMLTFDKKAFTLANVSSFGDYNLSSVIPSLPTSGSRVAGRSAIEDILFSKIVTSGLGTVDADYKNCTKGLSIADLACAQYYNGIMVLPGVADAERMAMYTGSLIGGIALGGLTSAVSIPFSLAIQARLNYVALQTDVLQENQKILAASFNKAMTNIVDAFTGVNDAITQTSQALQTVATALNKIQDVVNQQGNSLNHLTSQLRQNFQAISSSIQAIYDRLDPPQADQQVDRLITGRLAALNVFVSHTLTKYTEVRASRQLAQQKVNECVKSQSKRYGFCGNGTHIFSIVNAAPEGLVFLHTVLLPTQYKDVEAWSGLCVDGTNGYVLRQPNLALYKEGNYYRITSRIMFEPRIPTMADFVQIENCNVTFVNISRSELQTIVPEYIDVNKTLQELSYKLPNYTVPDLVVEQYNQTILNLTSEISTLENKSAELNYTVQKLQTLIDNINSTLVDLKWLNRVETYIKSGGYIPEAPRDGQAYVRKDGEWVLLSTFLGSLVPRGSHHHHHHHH
Test: ELISA, coated spike ectodomain
B1: no binding. B2: no binding. B3: no binding. B4: no binding. B5: no binding.

Target: T2, CoV-HKU1 Spike ectodomain (HKU1-CoV, UniProt Q0ZME7 14-1276)
T2 chain: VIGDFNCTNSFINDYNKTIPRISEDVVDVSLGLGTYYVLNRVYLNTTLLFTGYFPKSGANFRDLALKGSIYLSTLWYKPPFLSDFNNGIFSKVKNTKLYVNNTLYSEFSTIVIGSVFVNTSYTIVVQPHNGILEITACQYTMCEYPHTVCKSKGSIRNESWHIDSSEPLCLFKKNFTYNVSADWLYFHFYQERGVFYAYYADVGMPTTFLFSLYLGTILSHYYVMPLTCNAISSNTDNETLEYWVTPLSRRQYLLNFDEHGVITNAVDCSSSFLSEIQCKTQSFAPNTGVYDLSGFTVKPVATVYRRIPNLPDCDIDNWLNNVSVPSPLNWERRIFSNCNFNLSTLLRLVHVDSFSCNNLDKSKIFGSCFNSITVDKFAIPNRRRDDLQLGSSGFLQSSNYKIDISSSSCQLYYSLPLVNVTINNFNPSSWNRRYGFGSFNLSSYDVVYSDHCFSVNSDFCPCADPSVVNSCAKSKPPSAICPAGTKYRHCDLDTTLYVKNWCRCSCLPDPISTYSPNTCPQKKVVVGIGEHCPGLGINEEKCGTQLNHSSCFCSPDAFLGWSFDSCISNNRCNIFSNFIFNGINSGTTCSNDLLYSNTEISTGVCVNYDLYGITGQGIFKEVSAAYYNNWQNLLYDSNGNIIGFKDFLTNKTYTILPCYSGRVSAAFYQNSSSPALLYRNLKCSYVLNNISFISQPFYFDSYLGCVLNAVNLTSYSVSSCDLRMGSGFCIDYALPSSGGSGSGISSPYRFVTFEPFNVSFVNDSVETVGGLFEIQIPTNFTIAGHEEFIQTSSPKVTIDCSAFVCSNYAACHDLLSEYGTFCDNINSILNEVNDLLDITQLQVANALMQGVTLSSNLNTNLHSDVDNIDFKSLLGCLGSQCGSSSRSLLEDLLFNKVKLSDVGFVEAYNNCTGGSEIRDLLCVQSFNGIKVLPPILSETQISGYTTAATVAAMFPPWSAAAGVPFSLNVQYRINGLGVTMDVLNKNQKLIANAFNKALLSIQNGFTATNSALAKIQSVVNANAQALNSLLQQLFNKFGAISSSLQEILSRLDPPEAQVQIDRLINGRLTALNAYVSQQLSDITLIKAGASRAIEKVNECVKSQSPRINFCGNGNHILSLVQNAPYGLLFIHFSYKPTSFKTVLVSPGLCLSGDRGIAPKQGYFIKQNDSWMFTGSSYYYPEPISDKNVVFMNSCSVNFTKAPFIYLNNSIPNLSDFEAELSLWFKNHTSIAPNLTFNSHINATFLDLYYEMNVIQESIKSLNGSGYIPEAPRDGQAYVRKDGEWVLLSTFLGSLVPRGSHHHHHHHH
Test: ELISA, coated antigen; note: test concentration or dose not given here
In the case of B1, the “ELISA OD” value is reported as 0.1 OD. B2 was tested, and the “ELISA OD” value was 0.1 OD. B3 was tested, and the “ELISA OD” value was 0.2 OD. For B4, the “ELISA OD” value was 0.1 OD. B5 was tested, and the “ELISA OD” value was 0.1 OD.
